Data as given in US20070224189A1 (published 2007).

B1: S298A/E333A/K334A alemtuzumab (antibody)
heavy: not shown
B2: F241E/F243Y/V262T/V264R/I332E alemtuzumab (antibody)
heavy: DKTHTCPPCPAPELLGGPSVELYPPKPKDTLMISRTPEVTCTVRDVSHEDPEVKFNWYVDGVEVHNAKTKPREEQYNSTYRVVSVLTVLHQDWLNGKEYKCKVSNKALPAPEEKTISKAKGQPREPQVYTLPPSRDELTKNQVSLTCLVKGFYPSDIAVEWESNGQPENNYKTTPPVLDSDGSFFLYSKLTVDKSRWQQGNVFSCSVMHEALHNHYTQKSLSLSPGK
B3: P230A/E233D/I332E trastuzumab (antibody)
heavy: DKTHTCPPCAAPDLLGGPSVFLFPPKPKDTLMISRTPEVTCVVVDVSHEDPEVKFNWYVDGVEVHNAKTKPREEQYNSTYRVVSVLTVLHQDWLNGKEYKCKVSNKALPAPEEKTISKAKGQPREPQVYTLPPSRDELTKNQVSLTCLVKGFYPSDIAVEWESNGQPENNYKTTPPVLDSDGSFFLYSKLTVDKSRWQQGNVFSCSVMHEALHNHYTQKSLSLSPGK
B4: S239D/A330Y/I332E/V264T trastuzumab (antibody)
heavy: DKTHTCPPCPAPELLGGPDVFLFPPKPKDTLMISRTPEVTCVVTDVSHEDPEVKFNWYVDGVEVHNAKTKPREEQYNSTYRVVSVLTVLHQDWLNGKEYKCKVSNKALPYPEEKTISKAKGQPREPQVYTLPPSRDELTKNQVSLTCLVKGFYPSDIAVEWESNGQPENNYKTTPPVLDSDGSFFLYSKLTVDKSRWQQGNVFSCSVMHEALHNHYTQKSLSLSPGK
B5: F241Y/F243Y/V262T/V264T alemtuzumab (antibody)
heavy: DKTHTCPPCPAPELLGGPSVYLYPPKPKDTLMISRTPEVTCTVTDVSHEDPEVKFNWYVDGVEVHNAKTKPREEQYNSTYRVVSVLTVLHQDWLNGKEYKCKVSNKALPAPIEKTISKAKGQPREPQVYTLPPSRDELTKNQVSLTCLVKGFYPSDIAVEWESNGQPENNYKTTPPVLDSDGSFFLYSKLTVDKSRWQQGNVFSCSVMHEALHNHYTQKSLSLSPGK
B6: S239D/A330Y/I332E/V240I trastuzumab (antibody)
heavy: DKTHTCPPCPAPELLGGPDIFLFPPKPKDTLMISRTPEVTCVVVDVSHEDPEVKFNWYVDGVEVHNAKTKPREEQYNSTYRVVSVLTVLHQDWLNGKEYKCKVSNKALPYPEEKTISKAKGQPREPQVYTLPPSRDELTKNQVSLTCLVKGFYPSDIAVEWESNGQPENNYKTTPPVLDSDGSFFLYSKLTVDKSRWQQGNVFSCSVMHEALHNHYTQKSLSLSPGK
B7: S239D/A330Y/I332E/K326E trastuzumab (antibody)
heavy: DKTHTCPPCPAPELLGGPDVFLFPPKPKDTLMISRTPEVTCVVVDVSHEDPEVKFNWYVDGVEVHNAKTKPREEQYNSTYRVVSVLTVLHQDWLNGKEYKCKVSNEALPYPEEKTISKAKGQPREPQVYTLPPSRDELTKNQVSLTCLVKGFYPSDIAVEWESNGQPENNYKTTPPVLDSDGSFFLYSKLTVDKSRWQQGNVFSCSVMHEALHNHYTQKSLSLSPGK
B8: S239D/D265Y/N297D/I332E alemtuzumab (antibody)
heavy: DKTHTCPPCPAPELLGGPDVFLFPPKPKDTLMISRTPEVTCVVVYVSHEDPEVKFNWYVDGVEVHNAKTKPREEQYDSTYRVVSVLTVLHQDWLNGKEYKCKVSNKALPAPEEKTISKAKGQPREPQVYTLPPSRDELTKNQVSLTCLVKGFYPSDIAVEWESNGQPENNYKTTPPVLDSDGSFFLYSKLTVDKSRWQQGNVFSCSVMHEALHNHYTQKSLSLSPGK
B9: S239D/A330Y/I332E/L235D trastuzumab (antibody)
heavy: DKTHTCPPCPAPELDGGPDVFLFPPKPKDTLMISRTPEVTCVVVDVSHEDPEVKFNWYVDGVEVHNAKTKPREEQYNSTYRVVSVLTVLHQDWLNGKEYKCKVSNKALPYPEEKTISKAKGQPREPQVYTLPPSRDELTKNQVSLTCLVKGFYPSDIAVEWESNGQPENNYKTTPPVLDSDGSFFLYSKLTVDKSRWQQGNVFSCSVMHEALHNHYTQKSLSLSPGK
B10: S239D/A330Y/I332E/L234I trastuzumab (antibody)
heavy: DKTHTCPPCPAPEILGGPDVFLFPPKPKDTLMISRTPEVTCVVVDVSHEDPEVKFNWYVDGVEVHNAKTKPREEQYNSTYRVVSVLTVLHQDWLNGKEYKCKVSNKALPYPEEKTISKAKGQPREPQVYTLPPSRDELTKNQVSLTCLVKGFYPSDIAVEWESNGQPENNYKTTPPVLDSDGSFFLYSKLTVDKSRWQQGNVFSCSVMHEALHNHYTQKSLSLSPGK
B11: S239D/I332E/A330I trastuzumab (antibody)
heavy: DKTHTCPPCPAPELLGGPDVFLFPPKPKDTLMISRTPEVTCVVVDVSHEDPEVKFNWYVDGVEVHNAKTKPREEQYNSTYRVVSVLTVLHQDWLNGKEYKCKVSNKALPIPEEKTISKAKGQPREPQVYTLPPSRDELTKNQVSLTCLVKGFYPSDIAVEWESNGQPENNYKTTPPVLDSDGSFFLYSKLTVDKSRWQQGNVFSCSVMHEALHNHYTQKSLSLSPGK
B12: F243L/V262I/V264W alemtuzumab (antibody)
heavy: DKTHTCPPCPAPELLGGPSVFLLPPKPKDTLMISRTPEVTCIVWDVSHEDPEVKFNWYVDGVEVHNAKTKPREEQYNSTYRVVSVLTVLHQDWLNGKEYKCKVSNKALPAPIEKTISKAKGQPREPQVYTLPPSRDELTKNQVSLTCLVKGFYPSDIAVEWESNGQPENNYKTTPPVLDSDGSFFLYSKLTVDKSRWQQGNVFSCSVMHEALHNHYTQKSLSLSPGK
B13: F241L/F243L/V262I/V264I alemtuzumab (antibody)
heavy: DKTHTCPPCPAPELLGGPSVLLLPPKPKDTLMISRTPEVTCIVIDVSHEDPEVKFNWYVDGVEVHNAKTKPREEQYNSTYRVVSVLTVLHQDWLNGKEYKCKVSNKALPAPIEKTISKAKGQPREPQVYTLPPSRDELTKNQVSLTCLVKGFYPSDIAVEWESNGQPENNYKTTPPVLDSDGSFFLYSKLTVDKSRWQQGNVFSCSVMHEALHNHYTQKSLSLSPGK
B14: F241W/F243W/V262A/V264A alemtuzumab (antibody)
heavy: DKTHTCPPCPAPELLGGPSVWLWPPKPKDTLMISRTPEVTCAVADVSHEDPEVKFNWYVDGVEVHNAKTKPREEQYNSTYRVVSVLTVLHQDWLNGKEYKCKVSNKALPAPIEKTISKAKGQPREPQVYTLPPSRDELTKNQVSLTCLVKGFYPSDIAVEWESNGQPENNYKTTPPVLDSDGSFFLYSKLTVDKSRWQQGNVFSCSVMHEALHNHYTQKSLSLSPGK

What follows are binders tested against human F158 FcγRIIIa as used in SPR (human, UniProt P08637 17-208) (assay: SPR).
human F158 FcγRIIIa as used in SPR, sequence (P08637 17-208): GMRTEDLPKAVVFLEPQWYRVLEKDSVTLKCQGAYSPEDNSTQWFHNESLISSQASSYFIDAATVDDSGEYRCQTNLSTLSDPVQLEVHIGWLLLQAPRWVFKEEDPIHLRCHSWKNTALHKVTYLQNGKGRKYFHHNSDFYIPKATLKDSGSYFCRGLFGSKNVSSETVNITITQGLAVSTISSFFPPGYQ

Row | Binder | Kd [nM]
1 | B1 | 156

The binders below were run against His-tagged V158 FcγRIIIa (human, UniProt P08637 17-208) (assay: SPR, receptor on chip).
His-tagged V158 FcγRIIIa, sequence (P08637 17-208 F176V): as the sequence (P08637 17-208) above, with F160V counted along it

Row | Binder | Kd [nM]
2 | B1 | 39

Each binder was assayed against extracellular region of human V158 FcγRIIIa fused with glutathione S-Transferase (GST) (human, UniProt P08637 17-208) (assay: AlphaScreen competition).
extracellular region of human V158 FcγRIIIa fused with glutathione S-Transferase (GST), sequence (P08637 17-208 F176V): as the sequence (P08637 17-208) above, with F160V counted along it

Row | Binder | FcγRIIIa Fold [fold vs WT]
3 | B2 | 0.1
4 | B3 | 1.87
5 | B4 | 17.7
6 | B5 | 0.05
7 | B6 | 28
8 | B7 | 64.1
9 | B8 | 0.02
10 | B9 | 7.04
11 | B10 | 22.4
12 | B11 | 59.1
13 | B12 | 0.02
14 | B13 | 0.09
15 | B14 | 0.04
